Patent publication US20090269346A1

Tests used:
LRP2 CR89 (human) [1] = target: LRP2 CR89 (human) (UniProt P98164); test: phage binding: equal amounts of phage incubated in wells coated with LRP2 CR89, bound phage eluted and titered; no EDTA
LRP2 CR89 (human) [2] = target: LRP2 CR89 (human) (UniProt P98164); test: phage binding: equal amounts of phage incubated in wells coated with LRP2 CR89, bound phage eluted and titered; in the presence of 50 mM EDTA

Sequence of LRP2 CR89 (human) (P98164 1025-1102): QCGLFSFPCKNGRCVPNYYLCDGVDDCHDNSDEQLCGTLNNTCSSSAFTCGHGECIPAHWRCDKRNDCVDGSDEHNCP

B1: RAP phage (protein, not shown: large carriers)
chain: YSREKNQPKPSPKRESGEEFRMEKLNQLWEKAQRLHLPPVRLAELHADLKIQERDELAWKKLKLDGLDEDGEKEARLIRNLNVILAKYGLDGKKDARQVTSNSLSGTQEDGLDDPRLEKLWHKAKTSGKFSGEELDKLWREFLHHKEKVHEYNVLLETLSRTEEIHENVISPSDLSDIKGSVLHSRHTELKEKLRSINQGLDRLRRVSHQGYSTEAEFEEPRVIDLWDLAQSANLTDKELEAFREELKHFEAKIEKHNHYQKQLEIAHEKLRHAESVGDGERVSRSREKHALLEGRTKELGYTVKKHLQDLSGRISRARAEAETG
modifications: Displayed on M13 phage as an N-terminal fusion to pIII; pIII letters not given.
cfu recovered (LRP2 CR89 (human) [1]): 520 cfu | cfu recovered (LRP2 CR89 (human) [2]): 146 cfu
